Measured values taken from patent US20240059769A1 (BIOLOJIC DESIGN, published 2024).
Residue numbers refer to the chain shown, from its start. Where two headings read alike, the source gives them in different places.

Tests used:
recombinant human IL-13 [1] = biological target: T1, recombinant human IL-13 (human, UniProt P35225 35-146); assay: SPR
T1 construct: also called rh-IL-13; hIL-13

human TSLP [2] = biological target: T2, human TSLP (human, UniProt Q969D9 29-159); assay: SPR
T2 construct: also called hTSLP; rhTSLP

recombinant human IL-13 [3] = biological target: T1, recombinant human IL-13; assay: cell-based or functional assay
human TSLP [4] = biological target: T2, human TSLP; assay: cell-based or functional assay
recombinant human IL-13 [5] = biological target: T1, recombinant human IL-13; assay: cell-based or functional assay; remark: listed apart in the source
hTSLP-His [6] = biological target: T3, hTSLP-His (human, UniProt Q969D9 29-159, limits assumed); assay: cell-based or functional assay
hTSLP-His [7] = biological target: T3, hTSLP-His; assay: competition ELISA, 7 nM TSLP-His pre-incubated with antibody; competitor Tezepelumab coated
recombinant human IL-13 [8] = biological target: T1, recombinant human IL-13; assay: SPR; remark: listed apart in the source
human TSLP [9] = biological target: T2, human TSLP; assay: SPR; remark: listed apart in the source
[10] = biological target: T4, recombinant cynomolgus monkey IL-13 (cynomolgus monkey, UniProt Q0PW92 21-132); assay: SPR
T4 construct: bought; also called rc-IL-13; cIL-13
T4 sequence (Q0PW92 entry or part of it): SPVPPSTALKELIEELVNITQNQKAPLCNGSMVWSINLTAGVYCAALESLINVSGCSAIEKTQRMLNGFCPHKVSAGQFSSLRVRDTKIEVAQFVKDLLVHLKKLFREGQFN

[11] = biological target: T5, cynomolgus monkey (cyno) TSLP (cynomolgus monkey, UniProt A0A7N9CAT7 29-159); assay: SPR
T5 construct: also called cTSLP; cynomolgus TSLP
T5 sequence (A0A7N9CAT7 entry or part of it): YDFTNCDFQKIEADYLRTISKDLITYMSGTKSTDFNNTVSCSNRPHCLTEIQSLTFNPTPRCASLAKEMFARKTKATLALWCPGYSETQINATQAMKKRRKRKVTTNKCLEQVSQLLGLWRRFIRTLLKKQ

[12] = biological target: T6, recombinant human TSLP (hTSLP)-Fc (human, UniProt Q969D9 29-159, limits assumed); assay: yeast surface display, flow cytometry, 10 nM hTSLP-Fc; MFI normalized to expression and to the positive control
T6 construct: not shown: Fc

[13] = biological target: T7, recombinant human IL-13 (rh-IL-13)-Fc (human, UniProt P35225 35-146, limits assumed); assay: yeast surface display scFv, flow cytometry, 10 nM rh-IL-13-Fc
T7 construct: bought; not shown: human Fc
T7 sequence (P35225 35-146 limits assumed): as the sequence (Q0PW92 entry or part of it) above, with S1G, K10R, V42M, N67S, R83H, V100L counted along it

human TSLP [14] = biological target: T2, human TSLP; assay: yeast surface display, affinity maturation library

T1 sequence (P35225 35-146 limits assumed): as the sequence (Q0PW92 entry or part of it) above, with S1G, K10R, V42M, N67S, R83H, V100L counted along it

B1: BDG38.137 (antibody, V domains shown)
VH: QMQLVESGGGVVQPGQSLRLSCAASGFEFRTYGMHWVRQAPGKGLEWVAVIWDDGSNTHYADSVKGRFTITRDNSKNTLNLQMNSLRAEDTAVYYCVRAPQWYLTAEAFDLWGQGTMVTVSS
VL: SYVLTQPPSVSVAPGETATITCGGNLIGARLVHWYQQKPGQAPVLVIYDDSDRPSHIPERFSGSNSGNTATLTISRVEAGDEADYYCQVWDYSADTMVFGGGTKLTVL
notes: IgG1
- Kd (recombinant human IL-13 [1]): 58 pM
- koff (recombinant human IL-13 [1]): 0.000252 s⁻¹
- kon (recombinant human IL-13 [1]): 4.34e+06 M⁻¹ s⁻¹
- Kd (human TSLP [2]): 16.1 pM
- koff (human TSLP [2]): 7.01e-05 s⁻¹
- kon (human TSLP [2]): 4.36e+06 M⁻¹ s⁻¹
- IC50 CD23 (recombinant human IL-13 [3]): 373 pM
- IC50 TARC (human TSLP [4]): 823 pM
- HEK-IL-13 [nM] (IC50, STAT6 reporter) (recombinant human IL-13 [5]): 0.195 nM
- IC50 [pM], STAT5 phosphorylation inhibition in MUTZ5 cells (hTSLP-His [6]): 1.85 pM
- IC50 (hTSLP-His [7]): 10900 pM

B2: BDG38.076 (antibody, V domains shown)
VH: B1 VH with Q16R, E28A, N57A
VL: SYVLTQPPSVSVAPGETASITCGGNMIGGYLVHWYQQKPGQAPLLVIYDDVDRPARIPERFSGSNSGNTATLTISRVEAGDEADYYCQVWDHDTNHMVFGGGTKLTVL
notes: IgG1
- Kd (recombinant human IL-13 [8]): 35.4 pM
- koff (recombinant human IL-13 [8]): 0.000231 s⁻¹
- kon (recombinant human IL-13 [8]): 6.53e+06 M⁻¹ s⁻¹
- Kd (human TSLP [9]): 1.61 pM
- koff (human TSLP [9]): 3.22e-05 s⁻¹
- kon (human TSLP [9]): 2e+07 M⁻¹ s⁻¹
- IC50 CD23 (recombinant human IL-13 [3]): 308 pM
- IC50 TARC (human TSLP [4]): 3210 pM
- HEK-IL-13 [nM] (IC50, STAT6 reporter) (recombinant human IL-13 [5]): 0.0494 nM
- IC50 [pM], STAT5 phosphorylation inhibition in MUTZ5 cells (hTSLP-His [6]): 30.1 pM
- Kd [10]: 822 pM
- koff [10]: 0.00671 s⁻¹
- kon [10]: 8.16e+06 M⁻¹ s⁻¹
- IC50 (hTSLP-His [7]): 5380 pM
- Kd [11]: 0.00512 pM
- koff [11]: 3.99e-08 s⁻¹
- kon [11]: 7.8e+06 M⁻¹ s⁻¹

B3: Clone C9 (yeast-displayed scFv) (scFv)
scFv: QMQLVESGGGVVQPGRSLRLSCAASGFTFRTYGMHWVRQAPGKGLEWVAVIWYDGSNKHYADSVKGRFTITRDNSKNTLNLQMNSLRAEDTAVYYCARSPQWEWVHEAFDLWGQGTMVTVSSGGGGSGGGGSGGGGSSYVLTQPPSVSVAPGQTARITCGGNLIGSKLVHWYQQKPGQAPVLVVYDDGDRPSWIPERFSGSNSGNTATLTISRVEAGDEADYYCQVWDSSSDGVVFGGGTKLTVL
- binding result [12]: binds
- relative affinity (normalized MFI, % of positive control) [13]: > 20%

B4: Clone C2 (yeast-displayed scFv) (scFv)
scFv: B3 scFv with S99A, W104L, V105T, H106A, L111I, G188S, W193L
- binding result [12]: binds
- relative affinity (normalized MFI, % of positive control) [13]: > 20%

B5: Clone C6 (yeast-displayed scFv) (scFv)
scFv: B3 scFv with S99A, E103M, W104L, H106A, G188S, W193R, G233H
- binding result [12]: binds
- relative affinity (normalized MFI, % of positive control) [13]: > 20%

B6: Clone C40 (yeast-displayed scFv) (scFv)
scFv: B3 scFv with L163N, G188S, W193R, S229T
- binding result [12]: binds
- relative affinity (normalized MFI, % of positive control) [13]: > 20%

B7: Ab clone 38.018 (yeast surface display) (scFv, V domains shown)
VH: B1 VH with Q16R, E28A, V97A, T105S
VL: B1 VL with E16Q, T19R, A29S, R30K, I47V, H56R, Y92H, A94S, T96H, M97V
notes: YSD clone; also called BDG38_018
- binding result (human TSLP [14]): binds

B8: Ab clone 38.019 (yeast surface display) (scFv, V domains shown)
VH: B1 VH with Q16R, E28A, D53Y, T105S
VL: B1 VL with E16Q, T19R, A29S, R30K, I47V, H56R, A94S, D95N, T96H, M97V
notes: YSD clone; also called BDG38_019
- binding result (human TSLP [14]): binds

B9: Ab clone 38.021 (yeast surface display) (scFv, V domains shown)
VH: B1 VH with Q16R, E28A, R30D, D53Y, H59V, V97A, T105S
VL: B1 VL with E16Q, T19R, A29S, R30K, I47V, H56R, Y92H, A94S, T96H, M97Y
notes: YSD clone; also called BDG38_021
- binding result (human TSLP [14]): binds

B10: Ab clone 38.040 (yeast surface display) (scFv, V domains shown)
VH: B1 VH with Q16R, E28D, D53Y, N57I
VL: SYVLTQPPSVSVAPGQTARITCGGNLIGTKLVHWYQQKPGQAPVLVVYDDSDRPSRIPERFSGSNSGNTATLTISRVEAGDEADYYCQVWDHNEDEVVFGGGTKLTVL
notes: YSD clone; also called BDG38_040
- binding result (human TSLP [14]): binds
